The values below come from paper PMC11601447.

The target in one assay is hClpX E285A (human) (UniProt O76031). Put plainly: negative stain EM.
A further assay deals with hClpP^dCTE-S153A (human) (UniProt Q16740). Put plainly: cryo-EM structure.
The target in assay [1] is bortezomib-bound hClpP (human) (UniProt Q16740). Put plainly: cryo-EM structure.

Usually stoichiometry N stands for a count of units in the complex or per binding partner.

“hClpX E285A (from UniProt O76031 57-633) (enzyme)” gave a stoichiometry N with hClpX E285A (human) of 6.

The substance “hClpP^dCTE-S153A (from UniProt Q16740 58-277) (enzyme)” returned a stoichiometry N with hClpP^dCTE-S153A (human) of 14.

In turn, “bortezomib-bound hClpP (from UniProt Q16740 58-277) (enzyme)” registered a stoichiometry N in assay [1] of 14.
